Values of other authors, collected in paper PMC2910557.
Like-named read-outs stand apart in the source and are kept apart here.

Legend:
[1] = biological target: pHtrII (Natronomonas pharaonis) (UniProt P42259)
[2] = biological target: pHtrII (Natronomonas pharaonis) (UniProt P42259); remark: listed apart in the source

UniProt P42259, sequence (P42259 whole entry): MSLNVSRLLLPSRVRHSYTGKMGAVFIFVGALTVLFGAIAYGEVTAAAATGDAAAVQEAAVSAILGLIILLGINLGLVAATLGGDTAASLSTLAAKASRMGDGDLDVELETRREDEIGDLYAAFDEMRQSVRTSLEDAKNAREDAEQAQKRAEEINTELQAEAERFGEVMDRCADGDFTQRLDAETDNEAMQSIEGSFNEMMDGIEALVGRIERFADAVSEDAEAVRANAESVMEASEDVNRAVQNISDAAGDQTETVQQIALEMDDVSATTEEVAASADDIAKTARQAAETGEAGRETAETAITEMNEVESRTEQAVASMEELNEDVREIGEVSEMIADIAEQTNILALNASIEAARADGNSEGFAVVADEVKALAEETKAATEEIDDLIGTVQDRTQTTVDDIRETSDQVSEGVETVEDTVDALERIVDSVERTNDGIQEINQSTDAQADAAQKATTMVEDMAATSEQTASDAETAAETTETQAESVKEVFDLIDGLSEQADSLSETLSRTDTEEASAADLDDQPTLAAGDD

For “ppR M intermediate (ppRM) (from UniProt P42196)”, the Kd [1] is given as 5 µM.

For “ppR (sensory rhodopsin II) (from UniProt P42196)”, the Kd [2] is listed as 160 nM.
